Data: the Human Domainome abundance scans (Beltran et al. 2025)
± gives the uncertainty stated by the source.

B1: Gamma-crystallin D, residues 90 to 170; numbered along this chain, P07320 (parent)
chain: IRLYEREDYRGQMIEFTEDCSCLQDRFRFNEIHSLNVLEGSWVLYELSNYRGRQYLLMPGDYRRYQDWGATNARVGSLRRV

Variants of: B1
Experiment: abundance fitness (aPCA) (normalised: wild type 0, dead -1); higher = more abundant; growth selection in yeast, the domain comes from the species named
Conditions: Homo sapiens

Variant | abundance fitness
Y4W | -0.192 ± 0.15
E15N | 0.206 ± 0.29
E15V | -0.118 ± 0.076
E15A | -0.065 ± 0.11
E15R | -0.084 ± 0.059
E15T | -0.027 ± 0.13
E15S | -0.11 ± 0.086
D61N | -0.016 ± 0.18
D61R | -0.109 ± 0.085
D61Q | -0.038 ± 0.12
E18G | -0.088 ± 0.067
E18T | -0.035 ± 0.088
G69A | 0.038 ± 0.079
G69T | 0.016 ± 0.098
I14V | -0.001 ± 0.09
I14P | -0.825 ± 0.18
I14L | -0.106 ± 0.087
T17D | -0.012 ± 0.14
T17Y | 0.004 ± 0.22
T17R | 0.074 ± 0.064
T17S | -0.022 ± 0.063
T17E | -0.089 ± 0.095
T17M | -0.172 ± 0.16
T17W | -0.068 ± 0.099

Variant | abundance fitness
T17A | -0.177 ± 0.071
E5G | -0.025 ± 0.07
E5K | 0.112 ± 0.088
E5H | -0.176 ± 0.3
F16M | -0.115 ± 0.15
F16Q | 0.033 ± 0.13
F16R | 0.082 ± 0.063
F16G | 0.035 ± 0.052
Y9H | 0.19 ± 0.36
Y9G | 0.06 ± 0.053
G76A | 0.011 ± 0.074
G76E | 0.008 ± 0.11
G76D | -0.068 ± 0.099
G76R | 0.024 ± 0.076
Y65H | 0.099 ± 0.16
Y65L | 0.093 ± 0.087
Y65S | 0.041 ± 0.099
Y65I | 0.053 ± 0.19
S48V | -0.159 ± 0.078
S48R | -0.14 ± 0.073
S48L | -0.204 ± 0.087
S48T | -0.134 ± 0.36
S48M | -0.166 ± 0.15
S48Y | -0.194 ± 0.27

Variant | abundance fitness
D19M | -0.06 ± 0.094
D19C | -0.065 ± 0.19
D19I | -0.249 ± 0.13
D19F | 0.004 ± 0.15
D19V | -0.087 ± 0.075
V81L | 0.081 ± 0.37
F27W | -0.103 ± 0.095
F27V | -0.092 ± 0.077
F27I | -0.035 ± 0.19
F27N | -0.086 ± 0.5
F27M | -0.129 ± 0.21
F27Y | -0.048 ± 0.12
F27P | 0.103 ± 0.088
R10A | -0.093 ± 0.057
R10G | -0.004 ± 0.064
R10S | -0.138 ± 0.077
R10D | -0.118 ± 0.14
R10M | -0.026 ± 0.12
R10E | 0.059 ± 0.14
P59L | -0.085 ± 0.082
P59M | -0.037 ± 0.13
P59R | -0.088 ± 0.073
S34T | -0.924 ± 0.15
S34A | 0.112 ± 0.077

Variant | abundance fitness
S34P | -1.03 ± 0.11
Y62F | -0.147 ± 0.21
Y62N | -0.125 ± 0.14
Y62W | 0.026 ± 0.094
Y62L | 0.178 ± 0.068
Y62E | -0.401 ± 0.085
L23C | -0.023 ± 0.13
L23K | -0.033 ± 0.23
L23V | -0.043 ± 0.082
L23F | -0.027 ± 0.15
R64K | -0.287 ± 0.23
R64D | 0.167 ± 0.19
R64V | -0.044 ± 0.075
S21Y | 0.069 ± 0.28
S21R | -0.03 ± 0.075
S21Q | -0.246 ± 0.16
S21G | -0.05 ± 0.064
S21D | 0.044 ± 0.16
S21W | -0.099 ± 0.085
S21I | 0.004 ± 0.27
S21H | -0.088 ± 0.19
F29H | -0.066 ± 0.12
F29L | -0.012 ± 0.077
F29G | -0.007 ± 0.056

Variant | abundance fitness
F29N | -0.064 ± 0.16
F29P | 0.069 ± 0.099
N36A | 0.045 ± 0.081
N36H | -0.058 ± 0.14
N36M | -0.112 ± 0.16
N36C | -0.054 ± 0.1
R26P | 0.071 ± 0.077
R26E | 0.047 ± 0.082
R26F | -0.292 ± 0.16
R26Y | 0.095 ± 0.22
I32Y | 0.325 ± 0.48
I32E | -0.201 ± 0.32
I32W | 0.067 ± 0.15
I32F | -0.001 ± 0.13
N49P | -0.182 ± 0.11
N49K | -0.086 ± 0.18
N49G | -0.074 ± 0.059
N49R | -0.107 ± 0.059
G60D | -0.08 ± 0.15
G60M | -0.128 ± 0.11
G60N | -0.167 ± 0.34
G60K | 0.029 ± 0.12
G60T | -0.122 ± 0.14
L57A | -0.071 ± 0.12

Variant | abundance fitness
L57E | -0.91 ± 0.19
L57R | -0.376 ± 0.11
L57K | -0.173 ± 0.3
L57F | -0.194 ± 0.23
L57H | 0.049 ± 0.4
L57M | 0.029 ± 0.25
D8A | -0.079 ± 0.095
D8S | -0.03 ± 0.075
L44G | -0.024 ± 0.057
L44N | -0.938 ± 0.4
L44I | 0.048 ± 0.2
Y55M | -0.039 ± 0.18
Y55T | 0.187 ± 0.14
Y55Q | -0.006 ± 0.14
Y55L | 0.107 ± 0.082
A73L | 0.067 ± 0.07
A73F | -0.173 ± 0.17
A73M | 0.156 ± 0.059
A73G | 0.004 ± 0.063
A73W | 0.123 ± 0.064
M13L | 0.002 ± 0.081
M13E | -0.056 ± 0.16
M13Y | -0.524 ± 0.27
M13V | 0.04 ± 0.08

Variant | abundance fitness
M13H | 0.001 ± 0.17
M13R | -0.075 ± 0.073
M13G | 0.017 ± 0.051
T71N | 0.054 ± 0.32
T71P | -0.049 ± 0.13
T71V | -0.103 ± 0.11
T71L | 0.04 ± 0.096
T71W | 0.001 ± 0.1
T71C | 0.008 ± 0.12
T71F | -0.044 ± 0.16
Y45Q | -0.395 ± 0.19
Y45E | -1.04 ± 0.19
Y45H | -0.151 ± 0.19
R79T | -0.117 ± 0.11
R79A | 0.096 ± 0.097
R79Y | -0.153 ± 0.19
R79N | -0.316 ± 0.3
E7L | -0.031 ± 0.12
E7G | -0.095 ± 0.083
E7M | -0.029 ± 0.17
E7W | 0.045 ± 0.097
E7K | 0.103 ± 0.22
E7Y | -0.498 ± 0.43
